Measurements published in patent US20260174880.

Target: cytosolically localized BRD4 (lacks NLS), O60885

B1: BTK-FLAG (Bruton's Tyrosine Kinase, FLAG-tagged, expressed in HEK293T cells and treated with BTK-BRD4 PHICS) (protein)
chain: MAAVILESIFLKRSQQKKKTSPLNFKKRLFLLTVHKLSYYEYDFERGRRGSKKGSIDVEKITCVETVVPEKNPPPERQIPRRGEESSEMEQISIIERFPYPFQVVYDEGPLYVFSPTEELRKRWIHQLKNVIRYNSDLVQKYHPCFWIDGQYLCCSQTAKNAMGCQILENRNGSLKPGSSHRKTKKPLPPTPEEDQILKKPLPPEPAAAPVSTSELKKVVALYDYMPMNANDLQLRKGDEYFILEESNLPWWRARDKNGQEGYIPSNYVTEAEDSIEMYEWYSKHMTRSQAEQLLKQEGKEGGFIVRDSSKAGKYTVSVFAKSTGDPQGVIRHYVVCSTPQSQYYLAEKHLFSTIPELINYHQHNSAGLISRLKYPVSQQNKNAPSTAGLGYGSWEIDPKDLTFLKELGTGQFGVVKYGKWRGQYDVAIKMIKEGSMSEDEFIEEAKVMMNLSHEKLVQLYGVCTKQRPIFIITEYMANGCLLNYLREMRHRFQTQQLLEMCKDVCEAMEYLESKQFLHRDLAARNCLVNDQGVVKVSDFGLSRYVLDDEYTSSVGSKFPVRWSPPEVLMYSKFSSKSDIWAFGVLMWEIYSLGKMPYERFTNSETAEHIAQGLRLYRPHLASEKVYTIMYSCWHEKADERPTFKILLSNILDVMDEES
**Q.** With B1 as the protein, how does the “BRD4 phosphorylation (pBRD4 immunoblot) [panel B]” value read?
**A.** clear pBRD4 band in lane PHICS; no visible band in lanes DMSO and iPHICS; total BRD4 alike in all lanes

**Q.** What about the “BRD4 phosphorylation (pBRD4 immunoblot) [panel C]” value of the same protein?
**A.** strongest pBRD4 band in lane PHICS; weak bands in lanes DMSO and iPHICS; total BRD4 alike in all lanes

**Q.** And the “BRD4 phosphorylation (pBRD4 immunoblot) [panel F]” value?
**A.** clear pBRD4 band in lane 5; barely visible signal in lanes DMSO and 6; total BRD4 alike in all lanes

**Q.** What about the “BRD4 phosphorylation (pBRD4 immunoblot) [panel G]” value of the same protein?
**A.** clear pBRD4 band in lane 7; no visible band in lanes DMSO and 8; total BRD4 alike in all lanes
